The numbers were not newly measured in paper PMC4899099, which cites them from elsewhere.

The target of this data set is Carboxypeptidase E (UniProt P04836).
Chain of UniProt P04836 (P04836 42-475): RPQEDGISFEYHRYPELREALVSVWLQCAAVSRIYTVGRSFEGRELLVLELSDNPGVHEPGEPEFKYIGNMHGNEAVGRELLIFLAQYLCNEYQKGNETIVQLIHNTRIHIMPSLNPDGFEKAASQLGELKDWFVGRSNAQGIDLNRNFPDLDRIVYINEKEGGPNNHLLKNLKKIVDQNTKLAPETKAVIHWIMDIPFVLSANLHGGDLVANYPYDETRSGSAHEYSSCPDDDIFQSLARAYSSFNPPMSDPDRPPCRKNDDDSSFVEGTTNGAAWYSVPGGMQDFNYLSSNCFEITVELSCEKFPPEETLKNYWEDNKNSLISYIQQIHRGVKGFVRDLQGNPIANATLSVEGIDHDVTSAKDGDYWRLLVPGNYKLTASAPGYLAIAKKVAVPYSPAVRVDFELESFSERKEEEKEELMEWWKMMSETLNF

On to N-POMC(1-26) 1-26 (from UniProt P01190), for which the Kd was 6 µM.
